Common to all, as to assay type: cell-based
Assay [1] relates to primary human bone marrow pluripotent stem cells. The method, then:
EPO-R signaling stimulates the differentiation of bone marrow stem cells into proliferating red blood cell presursors. This assay measured the ability of test peptides to stimulate the proliferation and differentiation of red blood cell precursors from primary human bone marrow pluripotent stem cells. Test peptides were added to cultures of human bone marrow cells, and the cells are incubated for 16 days. Thereafter, the number of red blood cell colonies were counted. The concentration of test peptide at which the number of formed colonies is 90% of maximum, relative to that observed with EPO, was recorded as the EC90.

The target in assay [2] is T1, human EPO-R (Homo sapiens, UniProt P19235).
T1 construct: expressed in transfected cells; host or cells: murine pre-B-cell line
T1 sequence (P19235 25-508): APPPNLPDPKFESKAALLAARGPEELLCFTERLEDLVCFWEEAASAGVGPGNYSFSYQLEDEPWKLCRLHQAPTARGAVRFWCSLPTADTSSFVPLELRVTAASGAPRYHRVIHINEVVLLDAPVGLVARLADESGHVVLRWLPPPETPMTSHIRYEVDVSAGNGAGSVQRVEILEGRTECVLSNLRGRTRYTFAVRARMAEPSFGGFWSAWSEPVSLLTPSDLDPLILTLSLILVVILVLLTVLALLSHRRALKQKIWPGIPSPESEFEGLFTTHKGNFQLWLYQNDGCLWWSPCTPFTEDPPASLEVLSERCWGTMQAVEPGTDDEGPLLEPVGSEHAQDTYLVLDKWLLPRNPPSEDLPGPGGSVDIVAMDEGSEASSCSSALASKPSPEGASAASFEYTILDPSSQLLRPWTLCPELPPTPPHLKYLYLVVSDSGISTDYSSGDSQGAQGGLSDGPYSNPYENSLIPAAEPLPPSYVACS
In words: Reporter assay (fos promoter-driven luciferase). As to conditions: murine pre-B-cell line expressing human EPO-R with luciferase reporter; 4 hr incubation; half-maximal relative to EPO. The text has this: This assay was based upon a murine pre-B-cell line transfected to express human EPO-R and further transfected with a fos promoter-driven luciferase reporter gene construct. Upon exposure to EPO or another EPO-R agonist, such cells respond by synthesizing luciferase. Luciferase causes the emission of light upon addition of its substrate luciferin. Thus, the level of EPO-R activation in such cells may be quantitated via measurement of luciferase activity.
The activity of a test peptide was measured by adding serial dilutions of the test peptide to cells, which were then incubated for 4 hr. After incubation, luciferin substrate was added to the cells, and light emission was measured. The concentration of test peptide that results in a half-maximal emission of light, relative to that observed with EPO, was recorded as the EC50.
Background: In a reporter assay the amount or activity of a reporter protein is the signal.

In assay [3] the target is T1, human EPO-R. In words: Proliferation assay (MTT). The following applies: murine pre-B-cell line expressing human EPO-R, 48 hours incubation, half-maximal relative to EPO. The method, then: This assay was based upon a murine pre-B-cell line transfected to express human EPO-R. Proliferation of this cell line is dependent on EPO-R activation. The degree of cell proliferation was quantitated using MTT, where the signal in the MTT assay is proportional to the number of viable cells. The activity of a test peptide was measured by adding serial dilutions of the test peptide to cells, which were then incubated for 48 hours. After incubation, MTT was added to the cells, and absorbance was measured. The concentration of test peptide that results in a half-maximal absorbance, relative to that observed with EPO, was recorded as the EC50.

Among the data in US8106154B2, “Nitrogen-based linkers for attaching modifying groups to polypeptides and other macromolecules” (Affymax, Inc., priority 2007, dated 2012) are EC90 and EC50 values, retold here.

Regarding `CC[C@H](C)[C@@H]1NC(=O)[C@@H]2CCCN2C(=O)CNC(=O)[C@H](CCSC)NC(=O)[C@H](Cc2c[nH]cn2)NC(=O)[C@@H](NC(=O)[C@H](C)NC(=O)[C@H](Cc2ccc(O)cc2)NC(=O)[C@H](CC(C)C)NC(=O)CNC(=O)CNC(C)=O)CSSC[C@@H](C(=O)N[C@@H](CCC(N)=O)C(=O)N2CCC[C@H]2C(=O)N[C@@H](CC(C)C)C(=O)N[C@@H](CCCNC(=N)N)C(=O)N(C)CC(=O)N[C@@H](CCCCNC(=O)CN(CC(=O)NCCCC[C@H](NC(=O)CN(C)C(=O)[C@H](CCCNC(=N)N)NC(=O)[C@H](CC(C)C)NC(=O)[C@@H]2CCCN2C(=O)[C@H](CCC(N)=O)NC(=O)[C@@H]2CSSC[C@H](NC(=O)[C@H](C)NC(=O)[C@H](Cc3ccc(O)cc3)NC(=O)[C@H](CC(C)C)NC(=O)CNC(=O)CNC(C)=O)C(=O)N[C@@H](Cc3c[nH]cn3)C(=O)N[C@@H](CCSC)C(=O)NCC(=O)N3CCC[C@H]3C(=O)N[C@@H]([C@@H](C)CC)C(=O)N[C@@H]([C@@H](C)O)C(=O)N[C@@H](Cc3cccc4ccccc34)C(=O)N[C@@H](C(C)C)C(=O)N2)C(N)=O)C(=O)CCCC(=O)N(CCN)CCN)C(N)=O)NC(=O)[C@H](C(C)C)NC(=O)[C@H](Cc2cccc3ccccc23)NC(=O)[C@H]([C@@H](C)O)NC1=O` [Example 8 peptide (non-PEGylated)], in assay [1], the EC90 – broadly, the point of the concentration-response curve where the effect stands at 90% – was 0.026 nM. As for “Compound V: As Example 10 but peptide monomer Ac-GGLYACHYGPIT(Nal)VCQPLR(MeG)K, SEQ ID NO: 23 (GGLYACHYGPITXVCQPLRXK; not fully specified; conjugate chemistry not built)”, the EC50 – broadly, the midpoint of the concentration-response curve – came to 0.69 nM in assay [2] and 0.44 nM in assay [3].
